Experimental data: the supplement of paper PMC11780869

Test system: Bacillus subtilis
Experiment: cleaved RNA product abundance (RNA/gDNA barcode ratio) relative to median wild-type variant (ratio to wild type); higher = more accumulation of the downstream cleavage product
Conditions: cleavage site: cggR-gapA (positions -7 to +36 mutated)
How it was run: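 Sequencing of barcodes from gel-selected, reverse-transcribed cleaved RNA and from genomic DNA, with UMI collapsing, yielded a per-construct RNA:gDNA ratio. Scaled to the median construct with the unmutated site, this ratio is the cleaved product abundance. The barcoded reporters (truncated aprE or tetM mRNAs with mutagenized RNase Y cleavage-site windows) were integrated into the B. subtilis chromosome, and cultures grew in LB at 37°C from OD600 0.0003 to 0.3.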

[1] = experiment (reporter, strain, medium): exp 4a: truncated aprE reporter, strain BJT201 with 2% xylose (RNase J1 expressed)
[2] = experiment (reporter, strain, medium): exp 2b: truncated aprE reporter, strain BJT200
[3] = experiment (reporter, strain, medium): exp 6: tetM reporter, strain 168

Sequence | cleaved RNA product abundance [1] | cleaved RNA product abundance [2] | cleaved RNA product abundance [3]
ACAGACGAAGGAGCCGCAACGAAGTTATTAAGAGATGAATAATCCCTCAATATAAATATCTCTCACTTATTTAAA | 0.137 |  | 
ACAGACGAAGGAGCCGCAACGAAGTTATTAAGGAATAAATAATCCCTCAATATAAATATCTCTCACTTATTTAAA | 0.0859 |  | 
ACAGACGAAGGAGCCGCAACGAAGTTATTAAGGAATGAATAATCCCTCAATATAAATATCTCTCACTTATTTAAA | 0.126 | 0.116 | 
ACAGACGAAGGAGCCGCAACGAAGTTATTAAGGGAAGAATAATCCCTCAATATAAATATCTCTCACTTATTTAAA | 1.23 |  | 
ACAGACGAAGGAGCCGCAACGAAGTTATTAAGGGACGAATAATCCCTCAATATAAATATCTCTCACTTATTTAAA | 0.585 |  | 
ACAGACGAAGGAGCCGCAACGAAGTTATTAAGGGATAAATAATCCCTCAATATAAATATCTCTCACTTATTTAAA | 0.739 | 0.891 | 
ACAGACGAAGGAGCCGCAACGAAGTTATTAAGGGATGAACAATCCCTCAATATAAATATCTCTCACTTATTTAAA | 0.631 |  | 
ACAGACGAAGGAGCCGCAACGAAGTTATTAAGGGATGAATAAACCCTCAATATAAATATCTCTCACTTATTTAAA | 0.538 |  | 
ACAGACGAAGGAGCCGCAACGAAGTTATTAAGGGATGAATAATACCTCAATATAAATATCTCTCACTTATTTAAA | 0.18 | 0.111 | 
ACAGACGAAGGAGCCGCAACGAAGTTATTAAGGGATGAATAATCCCTCAAAATAAATATCTCTCACTTATTTAAA | 0.357 |  | 
ACAGACGAAGGAGCCGCAACGAAGTTATTAAGGGATGAATAATCCCTCAACATAAATATCTCTCACTTATTTAAA | 0.447 |  | 
ACAGACGAAGGAGCCGCAACGAAGTTATTAAGGGATGAATAATCCCTCAATATAAATAACTCTCACTTATTTAAA | 0.827 | 0.695 | 
ACAGACGAAGGAGCCGCAACGAAGTTATTAAGGGATGAATAATCCCTCAATATAAATATCTCTCACTTATTTAAA | 0.915 | 0.908 | 0.595
ACAGACGAAGGAGCCGCAACGAAGTTATTAAGGGATGAATAATCCCTCAATATAAATCTCTCTCACTTATTTAAA | 0.538 |  | 
ACAGACGAAGGAGCCGCAACGAAGTTATTAAGGGATGAATAATCCCTCAATATACATATCTCTCACTTATTTAAA | 0.706 |  | 
ACAGACGAAGGAGCCGCAACGAAGTTATTAAGGGATGAATAATCCCTCAATGTAAATATCTCTCACTTATTTAAA | 0.11 |  | 
ACAGACGAAGGAGCCGCAACGAAGTTATTAAGGGATGAATAATCCCTCACTATAAATATCTCTCACTTATTTAAA | 0.435 |  | 
ACAGACGAAGGAGCCGCAACGAAGTTATTAAGGGATGAATAATCCTTCAATATAAATATCTCTCACTTATTTAAA | 0.448 |  | 
ACAGACGAAGGAGCCGCAACGAAGTTATTAAGGGATGAATAATCTCTCAATATAAATATCTCTCACTTATTTAAA | 0.684 |  | 
ACAGACGAAGGAGCCGCAACGAAGTTATTAAGGGATGAATACTCCCTCAATATAAATATCTCTCACTTATTTAAA | 0.55 |  | 
ACAGACGAAGGAGCCGCAACGAAGTTATTAAGGGATGAATTATCCCTCAATATAAATATCTCTCACTTATTTAAA | 0.91 |  | 
ACAGACGAAGGAGCCGCAACGAAGTTATTAAGGGATGTATAATCCCTCAATATAAATATCTCTCACTTATTTAAA | 0.656 |  | 
ACAGACGAAGGAGCCGCAACGAAGTTATTAAGGGTTGAATAATCCCTCAATATAAATATCTCTCACTTATTTAAA | 0.508 |  | 
ACAGACGAAGGAGCCGCAACGAAGTTATTAAGGTATGAATAATCCCTCAATATAAATATCTCTCACTTATTTAAA | 0.0862 |  | 
ACAGACGAAGGAGCCGCAACGAAGTTATTAAGTGATGAATAATCCCTCAATATAAATATCTCTCACTTATTTAAA | 0.13 | 0.0825 | 
ACAGACGAAGGAGCCGCAACGAAGTTATTAATGGATGAATAATCCCTCAATATAAATATCTCTCACTTATTTAAA | 0.141 |  | 
ACAGACGAAGGAGCCGCAACGAAGTTATTATGGGATGAATAATCCCTCAATATAAATATCTCTCACTTATTTAAA | 0.483 |  | 
ACAGACGAAGGAGCCGCAACGAATTTATTAAGGGATGAATAATCCCTCAATATAAATATCTCTCACTTATTTAAA | 1.15 | 0.738 | 

Sequence | cleaved RNA product abundance [1] | cleaved RNA product abundance [2] | cleaved RNA product abundance [3]
ACAGACGAAGGAGCCGCAACGATGTTATTAAGGGATGAATAATCCCTCAATATAAATATCTCTCACTTATTTAAA | 1.36 |  | 
ACAGACGAAGGAGCCGCAAGAAGTTATTAAGGGATGAATAATCCCTCAATATAAATATCTCTCACTTATTTAAAG | 0.931 | 1.27 | 
ACAGACGAAGGAGCCGCAAGAAGTTATTAAGGGATTAATAATCCCTCAATATAAATATCTCTCACTTATTTAAAG | 0.71 |  | 
ACAGACGAAGGAGCCGCAAGAAGTTATTAGGGGATGAATAATCCCTCAATATAAATATCTCTCACTTATTTAAAG | 0.817 |  | 
ACAGACGAAGGAGCCGCAAGGAAGCTATTAAGGGATGAATAATCCCTCAATATAAATATCTCTCACTTATTTAAA |  | 0.644 | 
ACAGACGAAGGAGCCGCAAGGAAGTAATTAAGGGATGAATAATCCATCAATATAAATATCTCTCACTTATTTAAA |  | 0.122 | 
ACAGACGAAGGAGCCGCAAGGAAGTAATTAAGGGATGAATAATCCCTCAATATAAATATCTCTCACTTATTTAAA | 0.182 |  | 
ACAGACGAAGGAGCCGCAAGGAAGTTATAAAGGGATGAATAATCCCTCAATATAAATATCTCTCACTTATTTAAA | 0.578 |  | 
ACAGACGAAGGAGCCGCAAGGAAGTTATCAAGGGATGAATAATCCCTCAATATAAATATCTCTCACTTATTTAAA | 0.347 | 0.271 | 
ACAGACGAAGGAGCCGCAAGGAAGTTATTAACGGATGAATAATCCCTCAATATAAATATCTCTCACTTATTTAAA | 0.121 |  | 
ACAGACGAAGGAGCCGCAAGGAAGTTATTAAGGAATGAATAATCCCTCAATATAAATATCTCTCACTTATTTAAA | 0.115 |  | 
ACAGACGAAGGAGCCGCAAGGAAGTTATTAAGGCATGAATAATCCCTCAATATAAATATCTCTCACTTATTTAAA | 0.148 |  | 
ACAGACGAAGGAGCCGCAAGGAAGTTATTAAGGGACGAATAATCCCTCAATATAAATATCTCTCACTTATTTAAA | 0.614 |  | 
ACAGACGAAGGAGCCGCAAGGAAGTTATTAAGGGATAAATAATCCCTCAATATAAATATCTCTCACTTATTTAAA | 0.919 | 0.888 | 
ACAGACGAAGGAGCCGCAAGGAAGTTATTAAGGGATGAAAAATCCCTCAATATAAATATCTCTCACTTATTTAAA | 0.663 |  | 
ACAGACGAAGGAGCCGCAAGGAAGTTATTAAGGGATGAATAATACCTCAATATAAATATCTCTCACTTATTTAAA | 0.197 | 0.0986 | 
ACAGACGAAGGAGCCGCAAGGAAGTTATTAAGGGATGAATAATCCCTCAAAATAAATATCTCTCACTTATTTAAA | 0.314 |  | 
ACAGACGAAGGAGCCGCAAGGAAGTTATTAAGGGATGAATAATCCCTCAATATAAAAATCTCTCACTTATTTAAA | 0.35 |  | 
ACAGACGAAGGAGCCGCAAGGAAGTTATTAAGGGATGAATAATCCCTCAATATAAATATCTCTCACTTATTTAAA | 0.863 | 0.954 | 1.21
ACAGACGAAGGAGCCGCAAGGAAGTTATTAAGGGATGAATAATCCCTCAATATACATATCTCTCACTTATTTAAA | 0.774 |  | 
ACAGACGAAGGAGCCGCAAGGAAGTTATTAAGGGATGAATAATCCTTCAATATAAATATCTCTCACTTATTTAAA | 0.43 |  | 
ACAGACGAAGGAGCCGCAAGGAAGTTATTAAGGGATGAATAATCTCTCAATATAAATATCTCTCACTTATTTAAA | 0.86 |  | 
ACAGACGAAGGAGCCGCAAGGAAGTTATTAAGGGATGAATAATTCCTCAATATAAATATCTCTCACTTATTTAAA | 0.793 |  | 
ACAGACGAAGGAGCCGCAAGGAAGTTATTAAGGGATGAATCATCCCTCAATATAAATATCTCTCACTTATTTAAA | 0.633 | 0.824 | 
ACAGACGAAGGAGCCGCAAGGAAGTTATTAAGGGATGATTAATCCCTCAATATAAATATCTCTCACTTATTTAAA | 0.959 |  | 
ACAGACGAAGGAGCCGCAAGGAAGTTATTAAGGTATGAATAATCCCTCAATATAAATATCTCTCACTTATTTAAA | 0.101 |  | 
ACAGACGAAGGAGCCGCAAGGAAGTTATTAAGTGATGAATAATCCCTCAATATAAATATCTCTCACTTATTTAAA | 0.149 |  | 
